Here are results for 35 variants from the supplement of paper PMC7125110.

± gives the standard error. Fewer inactive variants are shown than the library holds. Bounds are passed on as bounds.

The labels stand for the following.
B1: glmS ribozyme (parent)
chain: AUAAAAGCGCCAGAACUACAGAAAUGUAGUUGACGAGGAGGAGGUUUAUCGAAUUUUCGGCGGAUGCCUCCAAA

Holding throughout (conditions): with glucosamine-6-phosphate
Data set [1] covers variants of B1. The experiment in a line: self-cleavage kobs at 640 uM GlcN6P; higher = faster cleavage; RNA array. In a few lines:
(§1)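 Tiles bearing barcoded ribozyme variants, transcribed in situ by E. coli RNA polymerase on sequenced MiSeq chips, were imaged over ~14 h at 37 °C using a hybridised Cy3 probe. Glucosamine-6-phosphate was supplied at 40 μM to 10 mM in HEPES/KCl/Mg(OAc)2 buffer. kobs came from one- or two-exponential decay fits to normalised per-tile medians, and weighted Michaelis–Menten fits then provided kcat and KM.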

In data set [2] the parent is B1. Put plainly: self-cleavage kobs at 2500 uM GlcN6P; higher = faster cleavage; RNA array. The procedure, abridged:
as §1

In data set [3] the parent is B1. Put plainly: self-cleavage kobs at 10000 uM GlcN6P; higher = faster cleavage; RNA array. In a few lines:
as §1

In the case of C8G G32C A33U C67U, the “self-cleavage kobs at 640 uM GlcN6P” value in the data set with glucosamine-6-phosphate [1] was less than 1e-05 s⁻¹. Moreover, the “self-cleavage kobs at 2500 uM GlcN6P” value in the data set with glucosamine-6-phosphate [2] was less than 1e-05 s⁻¹. As to C8A U45C C67U, in the data set with glucosamine-6-phosphate [1], the “self-cleavage kobs at 640 uM GlcN6P” value is less than 1e-05 s⁻¹.

Turning to C16U G37U A42G, the “self-cleavage kobs at 2500 uM GlcN6P” value with glucosamine-6-phosphate [2] was less than 1e-05 s⁻¹. For A12U C67G C70U, the “self-cleavage kobs at 640 uM GlcN6P” value with glucosamine-6-phosphate [1] stood at 0.000172 ± 3.8e-05 s⁻¹. For the same variant, the “self-cleavage kobs at 2500 uM GlcN6P” value with glucosamine-6-phosphate [2] was found to be 0.000623 ± 0.00017 s⁻¹. For the variant U47A G63A, the “self-cleavage kobs at 640 uM GlcN6P” value in the data set with glucosamine-6-phosphate [1] was less than 1e-05 s⁻¹. Same read-out and setting: the result for C11U G29U G37C C70A reads 0.000166 ± 5.6e-05 s⁻¹.

In the case of G37C U57A A64C C71A, in the data set with glucosamine-6-phosphate [1], the “self-cleavage kobs at 640 uM GlcN6P” value is less than 1e-05 s⁻¹. In addition, the “self-cleavage kobs at 2500 uM GlcN6P” value with glucosamine-6-phosphate [2] is less than 1e-05 s⁻¹. For G41U G43U U45C A53U C71U, the “self-cleavage kobs at 640 uM GlcN6P” value with glucosamine-6-phosphate [1] was less than 1e-05 s⁻¹. Besides, in the data set with glucosamine-6-phosphate [2], the “self-cleavage kobs at 2500 uM GlcN6P” value was less than 1e-05 s⁻¹.

As to C50G A52U C70U, the “self-cleavage kobs at 640 uM GlcN6P” value in the data set with glucosamine-6-phosphate [1] worked out at 0.000121 ± 5e-05 s⁻¹.

For A33U G41A G44A A64U, the “self-cleavage kobs at 640 uM GlcN6P” value in the data set with glucosamine-6-phosphate [1] is less than 1e-05 s⁻¹. The “self-cleavage kobs at 2500 uM GlcN6P” value with glucosamine-6-phosphate [2] was less than 1e-05 s⁻¹. Also, the “self-cleavage kobs at 10000 uM GlcN6P” value with glucosamine-6-phosphate [3] is less than 1e-05 s⁻¹.

As to A48G A53G C67G, in the data set with glucosamine-6-phosphate [1], the “self-cleavage kobs at 640 uM GlcN6P” value is 6.02e-05 ± 2.2e-05 s⁻¹. Also, the “self-cleavage kobs at 2500 uM GlcN6P” value with glucosamine-6-phosphate [2] was found to be 6.1e-05 ± 2.3e-05 s⁻¹. In the case of A15G G51C A52G G62A, in the data set with glucosamine-6-phosphate [1], the “self-cleavage kobs at 640 uM GlcN6P” value is less than 1e-05 s⁻¹. Further, the “self-cleavage kobs at 2500 uM GlcN6P” value with glucosamine-6-phosphate [2] was less than 1e-05 s⁻¹.

As for A36C G41A C50G C58G, the “self-cleavage kobs at 640 uM GlcN6P” value with glucosamine-6-phosphate [1] is less than 1e-05 s⁻¹. Regarding G13U G29C G60A U69C C70U, the “self-cleavage kobs at 640 uM GlcN6P” value with glucosamine-6-phosphate [1] is less than 1e-05 s⁻¹. On the same count and under the same terms, the result for C10A A36U G62A reads less than 1e-05 s⁻¹. As to U31C G37A, in the data set with glucosamine-6-phosphate [1], the “self-cleavage kobs at 640 uM GlcN6P” value was determined as 0.000113 ± 2.3e-05 s⁻¹. Further, in the data set with glucosamine-6-phosphate [2], the “self-cleavage kobs at 2500 uM GlcN6P” value came out at 0.000119 ± 1.8e-05 s⁻¹. Moreover, the “self-cleavage kobs at 10000 uM GlcN6P” value with glucosamine-6-phosphate [3] came out at 0.000359 ± 3.4e-05 s⁻¹. For C11G G13C C50A A53G U55A, the “self-cleavage kobs at 2500 uM GlcN6P” value with glucosamine-6-phosphate [2] was less than 1e-05 s⁻¹.

Take A12U A48C C58A: in the data set with glucosamine-6-phosphate [1], the “self-cleavage kobs at 640 uM GlcN6P” value was less than 1e-05 s⁻¹. The “self-cleavage kobs at 2500 uM GlcN6P” value with glucosamine-6-phosphate [2] is less than 1e-05 s⁻¹. For G13A G44C U54G, the “self-cleavage kobs at 640 uM GlcN6P” value in the data set with glucosamine-6-phosphate [1] is less than 1e-05 s⁻¹. Take U46G C50U C68G: the “self-cleavage kobs at 640 uM GlcN6P” value with glucosamine-6-phosphate [1] turned out to be 5.83e-05 ± 2.6e-05 s⁻¹.

Take A12C U31C A39G: in the data set with glucosamine-6-phosphate [1], the “self-cleavage kobs at 640 uM GlcN6P” value was 0.000185 ± 3.9e-05 s⁻¹. For the same variant, the “self-cleavage kobs at 2500 uM GlcN6P” value in the data set with glucosamine-6-phosphate [2] is 0.00135 ± 0.00023 s⁻¹. For the same variant, the “self-cleavage kobs at 10000 uM GlcN6P” value with glucosamine-6-phosphate [3] was 0.00124 ± 0.00028 s⁻¹. G13U A14U G35C U46A G51U U65A: the “self-cleavage kobs at 640 uM GlcN6P” value with glucosamine-6-phosphate [1] was less than 1e-05 s⁻¹. On to A6U G13U G44C, for which the “self-cleavage kobs at 2500 uM GlcN6P” value with glucosamine-6-phosphate [2] is less than 1e-05 s⁻¹. In the case of G43A U55G C61U G62C, the “self-cleavage kobs at 640 uM GlcN6P” value with glucosamine-6-phosphate [1] is less than 1e-05 s⁻¹. In the case of C34U G44C G63U A64C, in the data set with glucosamine-6-phosphate [1], the “self-cleavage kobs at 640 uM GlcN6P” value is less than 1e-05 s⁻¹. Turning to G29U A33C G44C, the “self-cleavage kobs at 2500 uM GlcN6P” value with glucosamine-6-phosphate [2] turned out to be 0.000325 ± 0.00014 s⁻¹. Consider G41U A53U U69G, for which the “self-cleavage kobs at 640 uM GlcN6P” value with glucosamine-6-phosphate [1] is less than 1e-05 s⁻¹.

Regarding A15G C34A A64C, the “self-cleavage kobs at 640 uM GlcN6P” value with glucosamine-6-phosphate [1] is less than 1e-05 s⁻¹.

For the variant C34G G37A U45A C58A, the “self-cleavage kobs at 640 uM GlcN6P” value with glucosamine-6-phosphate [1] is less than 1e-05 s⁻¹.

Regarding G13C G32A U45A A52U G60A G62C A64G C68U, in the data set with glucosamine-6-phosphate [1], the “self-cleavage kobs at 640 uM GlcN6P” value is less than 1e-05 s⁻¹. Moreover, in the data set with glucosamine-6-phosphate [2], the “self-cleavage kobs at 2500 uM GlcN6P” value was less than 1e-05 s⁻¹. On to G51A U54C U55G, for which the “self-cleavage kobs at 640 uM GlcN6P” value in the data set with glucosamine-6-phosphate [1] is less than 1e-05 s⁻¹.

As for G29A C50G C71A, the “self-cleavage kobs at 640 uM GlcN6P” value with glucosamine-6-phosphate [1] was 0.000129 ± 3.4e-05 s⁻¹. Further, the “self-cleavage kobs at 2500 uM GlcN6P” value with glucosamine-6-phosphate [2] was 0.000111 ± 2.3e-05 s⁻¹. Take G9U G62C C67U: the “self-cleavage kobs at 640 uM GlcN6P” value in the data set with glucosamine-6-phosphate [1] was less than 1e-05 s⁻¹. The “self-cleavage kobs at 2500 uM GlcN6P” value with glucosamine-6-phosphate [2] was less than 1e-05 s⁻¹. On to U47A U56A C70U, for which the “self-cleavage kobs at 640 uM GlcN6P” value with glucosamine-6-phosphate [1] was 0.00117 ± 0.00047 s⁻¹. The “self-cleavage kobs at 2500 uM GlcN6P” value with glucosamine-6-phosphate [2] worked out at 0.00157 ± 0.0006 s⁻¹. For the variant A39U U46G C50U U54C, the “self-cleavage kobs at 640 uM GlcN6P” value in the data set with glucosamine-6-phosphate [1] was less than 1e-05 s⁻¹.
